# Experimental data taken from the Human Domainome abundance scans (Beltran et al. 2025).
# ± gives the uncertainty stated by the source.
# B1: RAS guanyl-releasing protein 1, residues 539 to 593; numbered along this chain, O95267 (parent)
# chain: GFPHNFQETTYLKPTFCDNCAGFLWGVIKQGYRCKDCGMNCHKQCKDLVVFECKK
# Variants of: B1
# Experiment: abundance fitness (aPCA) (normalised: wild type 0, dead -1); higher = more abundant; growth selection in yeast, the domain comes from the species named
# Conditions: Homo sapiens
row,Variant,abundance fitness
1,GFPHNFQETEYLKPTFCDNCAGFLWGVIKQGYRCKDCGMNCHKQCKDLVVFECKK [T10E],-0.925 ± 0.15
2,GFPHNFQETSYLKPTFCDNCAGFLWGVIKQGYRCKDCGMNCHKQCKDLVVFECKK [T10S],-0.092 ± 0.046
3,GFPHNFQETWYLKPTFCDNCAGFLWGVIKQGYRCKDCGMNCHKQCKDLVVFECKK [T10W],-0.073 ± 0.071
4,GFPHNFQETTYLKPTKCDNCAGFLWGVIKQGYRCKDCGMNCHKQCKDLVVFECKK [F16K],-0.205 ± 0.12
5,SFPHNFQETTYLKPTFCDNCAGFLWGVIKQGYRCKDCGMNCHKQCKDLVVFECKK [G1S],0.218 ± 0.14
6,GFPHNFQETTYLKPTFCDNCAGFLWGVIKQGYRCKDCGMNCHKQCKDLIVFECKK [V49I],-0.319 ± 0.16
7,GFPHNFQETTYLKPTFCDNCAGFLWGVIKQGYRCKDCGMNCHKQCKDLPVFECKK [V49P],-0.174 ± 0.12
8,GFPHNFQETTYLKPTFCDNCAGFLWGVIKQGYRCKDCGDNCHKQCKDLVVFECKK [M39D],-0.242 ± 0.066
9,GFPHNFQETTYLKPTFCDNCAGFLWGVIKQGYRCKDCGFNCHKQCKDLVVFECKK [M39F],-0.158 ± 0.051
10,GFPHNFQETTYLKPQFCDNCAGFLWGVIKQGYRCKDCGMNCHKQCKDLVVFECKK [T15Q],-0.426 ± 0.25
11,GFPHNFQETTYLKPHFCDNCAGFLWGVIKQGYRCKDCGMNCHKQCKDLVVFECKK [T15H],-0.185 ± 0.12
12,GFPHNFQETTYLKPLFCDNCAGFLWGVIKQGYRCKDCGMNCHKQCKDLVVFECKK [T15L],-0.236 ± 0.083
13,GFGHNFQETTYLKPTFCDNCAGFLWGVIKQGYRCKDCGMNCHKQCKDLVVFECKK [P3G],0.116 ± 0.075
14,GFKHNFQETTYLKPTFCDNCAGFLWGVIKQGYRCKDCGMNCHKQCKDLVVFECKK [P3K],-0.171 ± 0.18
15,GFPHNFQETTYLKPTFCTNCAGFLWGVIKQGYRCKDCGMNCHKQCKDLVVFECKK [D18T],0.205 ± 0.07
16,GFPHNFQETTYLKPTFCDNCAGFLWGVIKQGYRCKDCGMNHHKQCKDLVVFECKK [C41H],-0.662 ± 0.32
17,GFPHNFQETTYLKPTFCDNCAGFLWGVIKQGYRCKDCGMNEHKQCKDLVVFECKK [C41E],-0.414 ± 0.11
18,GFPHNFQETTYLKPTFCDNCAGFLSGVIKQGYRCKDCGMNCHKQCKDLVVFECKK [W25S],-0.246 ± 0.097
19,GFPHNFQETTYLKPTFCDNCAGFLCGVIKQGYRCKDCGMNCHKQCKDLVVFECKK [W25C],-0.558 ± 0.17
20,GFPHNFQETTYLKPTFCDNCAGFLHGVIKQGYRCKDCGMNCHKQCKDLVVFECKK [W25H],-0.226 ± 0.15
21,GFPHNFQETTYLKPTFCDNCAGFLGGVIKQGYRCKDCGMNCHKQCKDLVVFECKK [W25G],-0.425 ± 0.076
22,GFPHNFQETTYLKPTFCDNCAGFLWGVIKQGYRCKPCGMNCHKQCKDLVVFECKK [D36P],-0.2 ± 0.13
23,GFPHNFQETTYLKPTFCDNCAGFLWGVIKQGYRCKDCGMNCHKQCKMLVVFECKK [D47M],-0.204 ± 0.11
24,GFPHNFQETTYLKPTFCDNCAGFLWGVIKQGYRCKDCGMNCHKQCKNLVVFECKK [D47N],-0.306 ± 0.14

row,Variant,abundance fitness
1,GFPHNFQETTYLKPTFCDNCAGFLWGVIKQGYRCKDCGMNCHKQCKDLVPFECKK [V50P],-0.157 ± 0.12
2,GFPHNFQETTYLKPTFCDNCAGFLWGVIKQGYRCKDCGMNCHKQCKDLVQFECKK [V50Q],0.06 ± 0.1
3,GFPHNFQETTYLKPTFCDNCAGFLWGVIKGGYRCKDCGMNCHKQCKDLVVFECKK [Q30G],-0.52 ± 0.11
4,GFPHNFQETTYLKPTFCDNCAGFLWGVIKKGYRCKDCGMNCHKQCKDLVVFECKK [Q30K],-0.599 ± 0.3
5,GFPHNFQETTYLKPTFCDNCAGFLWGVIKFGYRCKDCGMNCHKQCKDLVVFECKK [Q30F],-0.756 ± 0.21
6,GFPHNFQETTPLKPTFCDNCAGFLWGVIKQGYRCKDCGMNCHKQCKDLVVFECKK [Y11P],-0.742 ± 0.2
7,GFPHNFQETTYLKCTFCDNCAGFLWGVIKQGYRCKDCGMNCHKQCKDLVVFECKK [P14C],-0.235 ± 0.049
8,GFPHNFQETTYLKDTFCDNCAGFLWGVIKQGYRCKDCGMNCHKQCKDLVVFECKK [P14D],-0.38 ± 0.12
9,GFPHNFQETTYLKPTFCDNCAGFLWGVIKQGYRCKDCGMNCHKQCKDLVVFECNK [K54N],-0.113 ± 0.089
10,GFPHNFQETTYLKPTFCDNCAGFLWGVIKQGYRCKDCGMNCHKQCKDLVVFECEK [K54E],-0.103 ± 0.1
11,GFPHNFQETTYLKPTFCDNCAGFLWGVITQGYRCKDCGMNCHKQCKDLVVFECKK [K29T],-0.289 ± 0.099
12,GFPHNFQETTYLKPTFCDNCAGFLWGVIKQGYPCKDCGMNCHKQCKDLVVFECKK [R33P],-0.919 ± 0.13
13,GFPHNFQETTYLKPTFCDNCAGFLWGVIKQGYKCKDCGMNCHKQCKDLVVFECKK [R33K],0.121 ± 0.091
14,GFPHNFQETTYLKPTFCDNCAGFLWLVIKQGYRCKDCGMNCHKQCKDLVVFECKK [G26L],-0.452 ± 0.083
15,GFPHNFQETTYLKPTFCDNCAGFLWTVIKQGYRCKDCGMNCHKQCKDLVVFECKK [G26T],-0.529 ± 0.14
16,GFPHNFQETTYLKPTFCDNCAGFLWGVHKQGYRCKDCGMNCHKQCKDLVVFECKK [I28H],-0.209 ± 0.13
17,GFPHNFQETTYLKPTFCDNCAGFLWGVYKQGYRCKDCGMNCHKQCKDLVVFECKK [I28Y],-0.199 ± 0.093
18,GFPHNFQEYTYLKPTFCDNCAGFLWGVIKQGYRCKDCGMNCHKQCKDLVVFECKK [T9Y],-0.013 ± 0.13
19,GFPHNFQETTYLKPTFCDNCAGFLWGVIKQGYRCKDCGMNCHKQCKDLVVFEDKK [C53D],-0.061 ± 0.14
20,GFPHNFQETTYLKPTFCDNCAGFLWGVIKQGYRCKDCGMNCHKQCKDLVVFERKK [C53R],-0.255 ± 0.067
21,GFPHNFQETTYLKPTFCDNCAGFLWGVIKQGYRCKDCGMNCHKQCKDLVVFEMKK [C53M],-0.095 ± 0.051
22,GFPHNFQETTYLKPTFCDNCAGFLWGVIKQGYRCKDCGMNCHLQCKDLVVFECKK [K43L],-0.066 ± 0.089
23,GFPHNFQETTYLKPTFCDNCAGALWGVIKQGYRCKDCGMNCHKQCKDLVVFECKK [F23A],-0.433 ± 0.13
24,GFPHNFQETTYLKPTFCDNCAGVLWGVIKQGYRCKDCGMNCHKQCKDLVVFECKK [F23V],-0.132 ± 0.084
